Data as given in the nanobody polyreactivity screen of Harvey et al. (2022).

Experiment: yeast display, Sf9 membrane polyspecificity reagent, FACS + sequencing; frameworks hold sequencing errors
How it was run: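 Sorting gates, low and high (top ~1%), were placed on anti-HA fluorescence to track expression and on streptavidin fluorescence to track reagent binding. A clone's polyreactivity label is taken from the gate it came out of. The reagent was 10% biotinylated, detergent-solubilized Sf9 membrane, applied for 1 hour at 4 °C to galactose-induced yeast display cells.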

Sequence | polyreactivity (PSR sort gate)
QVQLVESGGGLVQAGGSLRLSCAASGRIFKNNAMGWYRQAPGKEREFVAAISSIGGRTYYADSVKGRFTISRDNAKHTVYLQMNSLKPEDTAVYYCAARGYTGGLWYDYWGQRTQVTVSS | high polyreactivity
QVQLVESGGGLVQAGGSLRLSCAASGRIFKPNAMGWYRQAPGKERELVASITSRGTSTYYADSVKGRFTISRDNAKNTVYLQMNSLKPEDTAVYYCAARPIHYPPYYYWGQGTQVTVSS | high polyreactivity
QVQLVESGGGLVQAGGSLRLSCAASGRIFKPYAMGWYRQAPGKERELVASISRRGGSTYYADSVKGRFTISRDNAKNTVYLQMNSLKPEDTAVYYCNASGTYISLGYDYWGQGTQVTVSS | high polyreactivity
QVQLVESGGGLVQAGGSLRLSCAASGRIFKRNAMGWYRQAPGKDTELVAGISSSGGSTYYADSVKGRFTISRDNAKNTVYLQMNSLKPEDTAVYYCAAVGYGLRPSYDYWGQGTQVTVSS | high polyreactivity
QVQLVESGGGLVQAGGSLRLSCAASGRIFKRNAMGWYRQAPGKERELVAAISSRVGRTYYADSVKGRFTISRDNAKNTVYLQMNSLKPEDTAVYYCAADTYTYYDYDYWGQGTQVTVSS | high polyreactivity
QVQLVESGGGLVQAGGSLRLSCAASGRIFKRYDMGWYRQAPGKERELVAAINRSGGSTYYADSVKGRFTISRDNAKNTVYLQMNSLKPEDTAVYYCAARYRYDGRYDYWGQGTQVTVSS | high polyreactivity
QVQLVESGGGLVQAGGSLRLSCAASGRIFKRYTMGWYRQAPGKERELVAGITFSGGSTYYADSVKGRFTISRDNAKNTVYLQMNSLKPEDTAVYDCNARVPPQGWGPWKAFDYWGQGTQVTVSS | low polyreactivity
QVQLVESGGGLVQAGGSLRLSCAASGRIFKSYVMGWYRQAPGKERELVAAISITGGSTYYADSVKGRFTISRDNAKNTVYLQMNSLKPEDTAVYYCAAEWFGSVQPAYDYWGQGTQVTVSS | high polyreactivity
QVQLVESGGGLVQAGGSLRLSCAASGRIFKTNAMGWDRQGPGKERELVAGITGRSGSSYYADSVKGRFTISRDIAMNTVYLQMNSLKPEDTAVYYCAAPLYGRYSYGYWGQGNQVTVSS | high polyreactivity
QVQLVESGGGLVQAGGSLRLSCAASGRIFKVNAMGWYRQAPGKERELVAAITRGGRTYADSVKGRFTISRDNAKNTVYLQMNSLKPEDTAVYYCAADVLEGWFKRYYYWGQGTQVTVSS | high polyreactivity
QVQLVESGGGLVQAGGSLRLSCAASGRIFKVYAMGWYRQAPGKERELVAAITSRGGSTYYADSVKGRFTISRDNAKNTVYLQMNSLKPEDTAVYYCAAARGLPSNKYYYWGQGTQVTVSS | high polyreactivity
QVQLVESGGGLVQAGGSLRLSCAASGRIFKVYAMGWYRQAPGKERELVATISRGGSTYYADSVKGRFTISRDNAKNTVYLQMNSLKPEDTAVYYCAKQRERYYWFGAWSYDYWGQGTQLTVSS | low polyreactivity
QVQLVESGGGLVQAGGSLRLSCAASGRIFKYHAMGWYRQAPGKERELVAAITWGGGGTYYADSVKGRFTISRDNAKNTVYLQMNSLIPEDTAVYYCNTERWGTGKLRYNYWGPGTQVTVSS | low polyreactivity
QVQLVESGGGLVQAGGSLRLSCAASGRIFKYNAMGWYRQAPGKEREFVARITSGGRTYYADSVKGRFTISRDNAKNTVYLQMNSLKPEDTAVYYCNAEDVRYWVRGYRMGYWGQGTQVTVSS | high polyreactivity
QVQLVESGGGLVQAGGSLRLSCAASGRIFKYYAKGWYRQAPGKERELVAAISWSGGRTYYADSVKGRFTISRDNAKTTVYLQMNSLKPEDTAVYDCNAASLRYSYTLFDSWGQGTQVTVSS | high polyreactivity
QVQLVESGGGLVQAGGSLRLSCAASGRIFKYYAMGWYRQAPGKERELVAAISRSGGSTYYADSVKGRFSISRDNAKNTVYLQMNSLKPEDTAVYYCAAGYKQATYDRIRTAYGYWGQGTQVTVSS | high polyreactivity
QVQLVESGGGLVQAGGSLRLSCAASGRIFKYYAMGWYRQAPGKERELVAAITWSGGNTYYADSVKGRFTISRDNAKNTVYLQMNSLKPEDTAVYYCAREVYYPIRQYNYWGQGTQVTVSS | high polyreactivity
QVQLVESGGGLVQAGGSLRLSCAASGRIFKYYTMGWSRQAPGKERELVAAISRDDSTNYADSVKGRFTISRDNAKNTVYLQMNSLKPEDTAVYYCAKGYHQYAGFYYWGQGTQVTVSS | high polyreactivity
QVQLVESGGGLVQAGGSLRLSCAASGRIFKYYVMGWYRQAPGKEREFVAAISGRGGRTYYADSVKGRFTISRDNAKNTVYLQMNSLKPEDTAVYYCATERQERGPLGYNYWGLGTQVTVSS | high polyreactivity
QVQLVESGGGLVQAGGSLRLSCAASGRIFKYYVMGWYRQAPGKESELVAAISSGSGSTYYADSVKGRFTISRDNAKNTVYLQMNSLKPEDTAVYYCNALSSWRRTYGSRYDYWGQGTQVTVSS | high polyreactivity
QVQLVESGGGLVQAGGSLRLSCAASGRIFLDNTMGGYRQATGKERELVATISSGASTNYADSVKGRFTISRDNAKNTVYLQMNSLKPEDTGVYYCNARVGGYPLWYKKYYYWGQGTQVNVSS | low polyreactivity
QVQLVESGGGLVQAGGSLRLSCAASGRIFLFYAMGWYRQAPGKERELVAAISIGSTDYADSVKGRFTISRDNAKNTVYLQMNSLKPEDTAVYYCAADFIITYDEYDYWGQGTQVTVSS | high polyreactivity

Sequence | polyreactivity (PSR sort gate)
QVQLVESGGGLVQAGGSLRLSCAASGRIFLGNAMGWYRQAPGKERELVAAIDASGGSTYYADSVKGRFTISRDNAKNTVYLQMNSLKPEDTAVYYCNAEPRYYSGGHGYDYWGQGTQVTVSS | low polyreactivity
QVQLVESGGGLVQAGGSLRLSCAASGRIFLGNAMGWYRQAPGNERELVADITTDGSTYYADSVKGRFTISRDNAKNTVYLQMNSLKPEVTAVYYCAAGEHPSFRSSYKYDYWGQGTQVTVSS | low polyreactivity
QVQLVESGGGLVQAGGSLRLSCAASGRIFLGNVMGWSRQAPGKERELVAAISSGGSTNYADSVKGRFTISRDNAKNTVYLQMNSLKPEDTAVYYCAAYFVRDWKLYYYWGQGTHVTVSS | low polyreactivity
QVQLVESGGGLVQAGGSLRLSCAASGRIFLHYAMGWYRQAPGKERELVAAISRSGGSTYYADSVKGRFTISRDNAKNTVYLQMNSLKPEDTAVYYCAAAYPFKTTEGYFYWGQGTQVTVSS | high polyreactivity
QVQLVESGGGLVQAGGSLRLSCAASGRIFLINALGCYRQAPGKERELVAAIRTGGNTYYADSVKGRFTISRDNAKNTVYLQMNSLKPEDTAVYSCAADRIYPYYRWSGAHRSDVDYWGQGTQVTVSS | low polyreactivity
QVQLVESGGGLVQAGGSLRLSCAASGRIFLINGMGWYRQAPGKERELVAVITQSGGTYYADSVKGRFTISRDNAKNTVYLQMNSLKPEDTAVYYCAASSYGASRGYWGQGTQVTVSS | high polyreactivity
QVQLVESGGGLVQAGGSLRLSCAASGRIFLKYSMGWYRQAPGKERELVAAISRGGSTYYADSVKGRFTISRDNAKNTVYLQMNSLKPEDTAVYYCAATSYRRTGYNYWGQGTQVTVSS | high polyreactivity
QVQLVESGGGLVQAGGSLRLSCAASGRIFLNYAMGWYRQAPGKERELDAAISRRGASTYYADSVKGRFTISRENAKNTVYLQMNSLKPEDTAVYYCATVPGKSGDYWGLGTQVTVSS | high polyreactivity
QVQLVESGGGLVQAGGSLRLSCAASGRIFLNYDMGWYTQAPGKERELVADISISGSTDYADSVKWRFTISRDNAKKTVYLQMNCLKPEDTAVYYCATSFYVSDYYVPYEMGYWGQGTQVTVSS | low polyreactivity
QVQLVESGGGLVQAGGSLRLSCAASGRIFLQYAMGWYRQAPGKERELVAGISSRGGSTYYADSVKGRFTISRDNAKNTVYLQMNSLKPEDTAVYYCAAQTKRIRYVYKHYYWGQGTQVTVSS | high polyreactivity
QVQLVESGGGLVQAGGSLRLSCAASGRIFLRNAMGWYRQAPGKERELVAAISSSGGRTYYADSVKGRFTISRDNAKNTVYLQMNSLKPEDTAVYYCNARWHGSFDYWGQGTQVTVSS | low polyreactivity
QVQLVESGGGLVQAGGSLRLSCAASGRIFLRTAMGWYRLAPAKERELVASIDSSGGSAYYADSVQGRFTISRDNAKNTVYLQMNSLKPEDTAVFYCNADAYGTPEFTSYAVRYDYGGQGTQVTVSS | low polyreactivity
QVQLVESGGGLVQAGGSLRLSCAASGRIFLRYAMGWYRQAPGKERELVAAIDFSAGSTYYADSVKGRFTISRDNAKNTVYLQMNSLKPEDTAVYYCATRLGVLYDYWGQGTQVTVSS | low polyreactivity
QVQLVESGGGLVQAGGSLRLSCAASGRIFLRYAMGWYRQAPGKERELVAVITWSGGSTNYADSVKGRFTISRDNAKNTVYLQMNSLKPEDTAVYYCAVDNSGRSWPYDYWGQGTQVTVSS | low polyreactivity
QVQLVESGGGLVQAGGSLRLSCAASGRIFLRYAMGWYRQAPGKERELVAVITWSGGSTNYADSVKGRFTISRDNAKNTVYLQMNSLKREDTAVYYCAVDNTGRSWPYDYWGQGTQVTVSS | low polyreactivity
QVQLVESGGGLVQAGGSLRLSCAASGRIFLRYVMGWYRQAPGKERELVAAIRSNGGSTYADSVKGRFTISRDNAKNTVYLQMNSLKPEDTAVYYCAARYFNTKGSFVVGYGYWGQGSQVTVSS | high polyreactivity
QVQLVESGGGLVQAGGSLRLSCAASGRIFLSNAMGWYRQAPGKERELVAAISWTGGSTYYADSVKGRFTISRDNAKNTVYLQMNSLKPEDTAVYYCAASTVGQTYSDYVDTYDYWGQGTQVTVSS | low polyreactivity
QVQLVESGGGLVQAGGSLRLSCAASGRIFLSNGMGWYRHAPGKERELVAGITTGGGDSTYYADSVKGRFTISRDNAKHTVYLQMNSLKPEDTAVYYCNADSVYAGFDYWGQGPQVTVSS | low polyreactivity
QVQLVESGGGLVQAGGSLRLSCAASGRIFLSYAMGWYRQAPGKERELVAAITDNGGDTYYADSVKGRFTISRDNAKNTVYLQMNILKPEDTAVYYCAVDGGEFSSYGYWGQGTQVTVSS | low polyreactivity
QVQLVESGGGLVQAGGSLRLSCAASGRIFLTYAMGWYRQAPGKERELVAAISTSGTRTYYADSVKGRFTISRDNAMNTVYLQMNSLKPEDTAVYYCAREKYNYRTYEYWGQGTQVTVSS | high polyreactivity
QVQLVESGGGLVQAGGSLRLSCAASGRIFLVYGMGWYREAPGKERELVASITYRGGSTYYADSVKGRFTISRDNAKNTVYLQMNSLKPEDTAVYYCADDGAFYASTEMDYWGQGTQVNVSS | low polyreactivity
